± gives the uncertainty stated by the source.
Assay: self-splicing fitness, log relative to wild type (ln ratio); higher = more splicing; Tetrahymena group I intron in knt gene, E. coli kanamycin selection, DiMSum; sequences stand for … in CUCUCU…GGAGGGAAAAGUUAUCAGGCAUGCACCUGGUAGCUAGUCUUUAAACCAAUAGAUUGCAUCGGUUUAAAAGGCAAGACCGUCAAAUUGCGGGAAAGGGGUCAACAGCCGUUCAGUACCAAGUCUCAGGGGAAACUUUGAGAUGGCCUUGCAAAGGGUAUGGUAAUAAGCUGACGGACAUGGUCCUAACCACGCAGCCAAGUCCUAAGUCAACAGAUCUUCUGUUGAUAUGGAUGCAGUUCACAGACUAAAUGUCGGUCGGGGAAGAUGUAUUCUUCUCAUAAGAUAUAGUCGGACCUCUCCUUAAUGGGAGCUAGCGGAUGAAGUGAUGCAACACUGGAGCCGCUGGGAACUAAUUUGUAUGCGAAAGUAUAUUGAUUAGUUUUGGAGUACUCGUGGUCG
Outline: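 Library with all eight P1ex-region intron nucleotides randomised, intron inside the knt kanamycin-resistance gene on pET-22b(+), in E. coli BL21(DE3). Cells grew overnight at 37°C or 30°C on LB agar with or without 25 μg/mL kanamycin (plus 100 μg/mL carbenicillin, 50 μM IPTG, 0.2% rhamnose), in six replicate transformations. Pooled colonies were amplicon-sequenced on Illumina HiSeq 2500. DiMSum fitness is the error-weighted combination of wild-type-normalised replicate fold changes, kanamycin versus none.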

Sequence	self-splicing fitness (ln) (30 °C)	self-splicing fitness (ln) (37 °C)
GGGAAGCAAUAUUACGUUGG	-3.77 ± 0.3	-1.1 ± 0.24
AUCGAGCAAUAUUACGUUGA	-3.44 ± 0.27	-2.94 ± 0.22
CGAGAGCAAUAUUACGAUGG	-3.15 ± 0.2	-0.694 ± 0.16
CGCUAGCAAUAUUACGCUAC		-2.29 ± 0.5
CAAGAGCAAUAUUACGGAAG	-1.75 ± 0.13	-1.31 ± 0.19
CAAAAGCAAUAUUACGUUCA	-1.67 ± 0.11	-0.976 ± 0.1
UGUGAGCAAUAUUACGUCUC	-1.96 ± 0.25	
GAAGAGCAAUAUUACGAAUC	-3.48 ± 0.22	-1.91 ± 0.15
GGCGAGCAAUAUUACGAUUC	-0.495 ± 0.1	0.463 ± 0.14
UGCGAGCAAUAUUACGAUUA	-1.56 ± 0.13	-1.1 ± 0.11
CUUUAGCAAUAUUACGCGGA	-2.48 ± 0.27	-2.81 ± 0.32
GGCUAGCAAUAUUACGACAG	-2.88 ± 0.35	-1.85 ± 0.34
GAUCAGCAAUAUUACGUUUU	-0.968 ± 0.058	0.149 ± 0.08
AGGGAGCAAUAUUACGGCAC		-1.77 ± 0.42
UUUAAGCAAUAUUACGAAAA	-0.789 ± 0.19	-1.33 ± 0.2
AGCUAGCAAUAUUACGGACU	8.42e-05 ± 0.097	0.516 ± 0.12
CGGGAGCAAUAUUACGACCA	-1.08 ± 0.31	
GGGCAGCAAUAUUACGGAGG	-4.42 ± 0.26	-3.03 ± 0.23
CGGAAGCAAUAUUACGCCGC	-2.96 ± 0.28	-2.51 ± 0.35
CCGUAGCAAUAUUACGGCCA		-2.19 ± 0.35
UGGGAGCAAUAUUACGGGGU	-1.76 ± 0.33	-1.7 ± 0.35
UAGCAGCAAUAUUACGCGCC	-1.77 ± 0.12	-1.16 ± 0.19
ACCCAGCAAUAUUACGUUGU	-0.339 ± 0.043	-0.0259 ± 0.057
CGCCAGCAAUAUUACGUGAC	-3.64 ± 0.32	-2.96 ± 0.33
GAGCAGCAAUAUUACGCAGG	-2.08 ± 0.13	-2.55 ± 0.19
UGCGAGCAAUAUUACGGAAA	-3.19 ± 0.33	-2.55 ± 0.3

Sequence	self-splicing fitness (ln) (30 °C)	self-splicing fitness (ln) (37 °C)
AACCAGCAAUAUUACGCACU	0.473 ± 0.074	0.0602 ± 0.078
CAUCAGCAAUAUUACGUCCU	-3.78 ± 0.22	-1.91 ± 0.22
GUACAGCAAUAUUACGACCG	-2.47 ± 0.19	-0.419 ± 0.14
AGAAAGCAAUAUUACGAUAA	-1.21 ± 0.054	-0.539 ± 0.073
CAACAGCAAUAUUACGUUUG	-3.3 ± 0.077	-2.11 ± 0.094
GUAUAGCAAUAUUACGGAGG	-2.94 ± 0.23	-3.14 ± 0.4
CCGGAGCAAUAUUACGAAAU	-3.2 ± 0.27	-0.842 ± 0.37
AAACAGCAAUAUUACGCUCC	-1.21 ± 0.14	-0.165 ± 0.13
UAGGAGCAAUAUUACGUGUU	-2.97 ± 0.13	-2.51 ± 0.17
UAUCAGCAAUAUUACGGACC	-2.13 ± 0.13	-1.39 ± 0.15
CCGAAGCAAUAUUACGGUCA	-3.56 ± 0.2	-2.55 ± 0.18
ACUCAGCAAUAUUACGGAGG	-2.28 ± 0.13	-1.35 ± 0.17
GUAGAGCAAUAUUACGAGGA	-2.61 ± 0.26	
AAACAGCAAUAUUACGGUAU	-2.53 ± 0.074	-1.58 ± 0.088
GUCUAGCAAUAUUACGACAC	-0.746 ± 0.13	-0.011 ± 0.11
UGAUAGCAAUAUUACGGCAC	-2.97 ± 0.33	-1.51 ± 0.43
GCUAAGCAAUAUUACGUUGC	-2.26 ± 0.46	-1.71 ± 0.38
CUUGAGCAAUAUUACGUUUU	-3.92 ± 0.28	-3.44 ± 0.3
CUAAAGCAAUAUUACGACCG	0.565 ± 0.087	0.104 ± 0.11
UGCGAGCAAUAUUACGGGCC	-2.91 ± 0.28	-1.54 ± 0.21
UACUAGCAAUAUUACGAGCG	-0.191 ± 0.088	0.655 ± 0.11
UGUCAGCAAUAUUACGAAGG	-1.69 ± 0.1	-0.409 ± 0.14
CUCUAGCAAUAUUACGAUAU	-3.45 ± 0.24	-3.2 ± 0.25
AUCAAGCAAUAUUACGUGAC	-2.04 ± 0.12	-1.07 ± 0.11
CGAUAGCAAUAUUACGAGAA	-2.67 ± 0.36	-2.73 ± 0.47
GAAGAGCAAUAUUACGCCCA	-3.65 ± 0.48	-0.321 ± 0.31

Sequence	self-splicing fitness (ln) (30 °C)	self-splicing fitness (ln) (37 °C)
CAGGAGCAAUAUUACGCCAU	-2.73 ± 0.33	-1.55 ± 0.41
UACAAGCAAUAUUACGUAAU	-2.72 ± 0.18	-0.0213 ± 0.15
AUGCAGCAAUAUUACGCUCU	-1.34 ± 0.084	0.22 ± 0.084
CAGUAGCAAUAUUACGCCUA	-0.488 ± 0.14	-0.218 ± 0.15
UUACAGCAAUAUUACGGCGA	-0.0852 ± 0.081	0.489 ± 0.11
ACGGAGCAAUAUUACGCGCA	-1.39 ± 0.23	-1.64 ± 0.17
AGUAAGCAAUAUUACGGUAU	-2.52 ± 0.17	-1.35 ± 0.13
CCUAAGCAAUAUUACGUACU	-3.76 ± 0.43	-3.01 ± 0.29
GAAUAGCAAUAUUACGCUUU	-2.02 ± 0.15	-1.35 ± 0.16
GAGAAGCAAUAUUACGAAGC	-3.21 ± 0.28	-1.65 ± 0.29
UUAGAGCAAUAUUACGGAAC	-4.11 ± 0.39	-2.33 ± 0.37
UGAUAGCAAUAUUACGACUG	0.053 ± 0.18	-0.49 ± 0.17
GAGAAGCAAUAUUACGACCA	-1.12 ± 0.18	0.744 ± 0.3
GGCUAGCAAUAUUACGCCUA	-0.205 ± 0.23	-1.69 ± 0.3
UCGUAGCAAUAUUACGGUUU	-3.44 ± 0.14	-1.37 ± 0.11
GUCGAGCAAUAUUACGUACG	-2.29 ± 0.26	-2.44 ± 0.41
CCACAGCAAUAUUACGCUAU	-3.61 ± 0.26	-3.12 ± 0.25
AUGAAGCAAUAUUACGACCC	-1.6 ± 0.22	
GUACAGCAAUAUUACGCAGU	-4.74 ± 0.31	-3 ± 0.24
GUCCAGCAAUAUUACGAUGG	-3.74 ± 0.16	-3.37 ± 0.25
CUCUAGCAAUAUUACGAAAG	-2.34 ± 0.2	-2.11 ± 0.34
UCAAAGCAAUAUUACGGCUG	-0.827 ± 0.056	0.231 ± 0.078
UUGCAGCAAUAUUACGGACG	-0.806 ± 0.17	-1.1 ± 0.23
AUUAAGCAAUAUUACGUCUC	-2.06 ± 0.12	-1.4 ± 0.19
GCAUAGCAAUAUUACGAUCA	-2.05 ± 0.34	0.131 ± 0.22

From the supplement of paper PMC7877785
